Ends that are not written are not given here.
B1: Peptide C105Y (peptide)
peptide: CSIPPEVKFNKPFVYLI
modifications: also: radio-iodinated with 125I, site not given here
B2: fluorescein labeled C1315 peptide (peptide)
peptide: CFLEAIPMSIPPEVKFNKPFVFLIIHRD
modifications: also: labelled with fluorescein isothiocyanate, site not given here

Key:
[1] = target: serpin enzyme complex receptor (SEC-R) on human hepatoma cell lines (human); experiment: 125I-C105Y specific binding on cells
[2] = target: serpin enzyme complex receptor (SEC-R) on human hepatoma cell lines (human); experiment: 125I-C105Y saturation binding on HepG2 (low) cells, Scatchard analysis
[3] = target: serpin enzyme complex receptor (SEC-R) on human hepatoma cell lines (human); experiment: 125I-C105Y saturation binding on HuH7 cells, Scatchard analysis
[4] = target: serpin enzyme complex receptor (SEC-R) on human hepatoma cell lines (human); experiment: 125I-C105Y saturation binding on HepG2 (high) cells, Scatchard analysis
[5] = target: serpin enzyme complex receptor (SEC-R) on human hepatoma cell lines (human); experiment: fluorescence microscopy of HepG2(high) cells with 100 nM fluorescein labeled peptide at 4 C; cells per 100 counted
[6] = target: serpin enzyme complex receptor (SEC-R) on human hepatoma cell lines (human); experiment: fluorescence microscopy of HepG2(low) cells with 100 nM fluorescein labeled peptide at 4 C; cells per 100 counted
[7] = target: serpin enzyme complex receptor (SEC-R) on human hepatoma cell lines (human); experiment: fluorescence microscopy of HuH7 cells with 100 nM fluorescein labeled peptide at 4 C; cells per 100 counted

Binder	fold less specific binding, HepG2 (low) against HepG2 (high) [1] [fold]	fold less specific binding, HepG2 (low) against HuH7 [1] [fold]	fold more C105Y bound, HuH7 against HepG2 (high) [1] [fold]	Kd [2] [nM]	Kd [3] [nM]	Kd [4] [nM]	Average % Fluorescent Cells [5] [%]	Average % Fluorescent Cells [6] [%]	Average % Fluorescent Cells [7] [%]
B1	7.5	10	1.5	22.5	70	50	–	–	–
B2	–	–	–	–	–	–	20.4	1.8	14.3
